Measured values reported in patent US20190083645A1 (AbbVie / Abbott, published 2019).

T1: human CLDN9 (human, UniProt O95484 1-217)
T1 sequence: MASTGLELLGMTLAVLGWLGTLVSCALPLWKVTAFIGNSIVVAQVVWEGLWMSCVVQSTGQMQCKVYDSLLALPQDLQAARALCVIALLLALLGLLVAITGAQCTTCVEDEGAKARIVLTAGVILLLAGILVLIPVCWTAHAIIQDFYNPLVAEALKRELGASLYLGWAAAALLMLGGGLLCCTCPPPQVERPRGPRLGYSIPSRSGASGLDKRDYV

T2: human CLDN4 (human, UniProt O14493 1-209)
T2 sequence (looked up): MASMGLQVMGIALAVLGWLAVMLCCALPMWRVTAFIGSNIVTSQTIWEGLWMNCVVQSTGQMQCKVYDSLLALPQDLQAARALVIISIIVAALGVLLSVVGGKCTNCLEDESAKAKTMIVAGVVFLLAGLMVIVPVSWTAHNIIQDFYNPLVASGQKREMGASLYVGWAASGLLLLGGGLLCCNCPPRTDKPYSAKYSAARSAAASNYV

T3: human CLDN6 (human, UniProt P56747 1-220)
T3 sequence: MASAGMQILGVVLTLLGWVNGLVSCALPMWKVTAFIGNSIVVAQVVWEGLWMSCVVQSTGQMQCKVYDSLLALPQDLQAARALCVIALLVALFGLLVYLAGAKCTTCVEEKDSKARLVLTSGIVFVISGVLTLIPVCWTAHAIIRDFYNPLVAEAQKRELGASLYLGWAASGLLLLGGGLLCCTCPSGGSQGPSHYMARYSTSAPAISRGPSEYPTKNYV

B1: SC27.105 (antibody, V domains shown)
VH: EVQLQQSGPELVKPGASVKISCKASGYSFTGYYMNWVKQSPEKSLEWIGEINPSTGSTTYNQKFKAKATLTVDKSSSTAYMQLKSLTSEDSAVYYCARRDYYYGSGFYAMDYWGQGTSVTVSS
VL: DVQMTQSPSSLSASLGERVSLTCQASQSVSNNLNWYQQTPGKAPRLLIYGASKLEDGVSSRFSGTGYGTDFTFTISSLEEEDVATYFCLQHRYLWTFGGGTKLEIK
B2: SC27.204 (antibody, V domains shown)
VH: EVKVLESGGGLVQPGGSLKLSCAASGFDFSRYWMSWVRQAPGKGLEWIGEINPDSSTINYTPSLKAKFIISRDNAKNTLYLQMSKVRSEDTALYYCTGPAYWGQGTLVTVSA
VL: DIVMTQSQKFMSTSVGDRVSVACKAGQNVGTSVAWYQQKPGHSPKSLIYSASYRYSGVPNRFTGSGSGTDFTLTISNVQSEDLADYFCQQYITYPYTFGGGTKLEII
B3: SC27.108 (antibody, V domains shown)
VH: QVQMQQSGAELVRPGTSVKVSCKASGYAFTNYLIEWVKQRPGQGLEWIGLINPGSGGTNYNEKFKGKATLTADKSSTTAYMQLSSLTSDDSAVYFCARRSPLGSWIYYAYDGVAYWGQGTLVTVSA
VL: EIVLTQSPALMAASPGEKVTITCSVSSSISSSNLHWYQQKSGTSPKLWIYGTSNLASGVPVRFSGSGSGTSYSLTISNMEAEDAATYYCQQWSSYPHTFGGGTKLEIK
B4: SC27.103 (antibody, V domains shown)
VH: EVHLQQSGPELVKPGGSMKISCKASGYSFTGYTMNWVKQSHGKNLEWIGLFNPYNGGTSYNQKFKGKATLTVDKSSSTAYMELLSLTSEDSAVYYCARCYRYDGLDYWGQGTTLTVSS
VL: QIVLTQSPAIMSASLGERVTMTCTASSSVSSSYLHWYQQKPGSSPTLWIYRTSDLASGVPARFSGSGSGTSYSLTISSMEAEDAATYYCHQYHRSPWTFGGGTRLEIK
B5: SC27.201 (antibody, V domains shown)
VL: DIQMTQSSSSFSVSLGDRVTITCKASEDIYNRLAWYQQKPGNAPRLLISGATSLEAGVPSGFSGSGSGKDYTLSITSLQTEDVATYYCQQYWSTPPTFGGGTKLELK
V domain: EVQLQQSGPELVKPGASVKISCKTSGYTFTENIRHWVKQSRGKSLEWIGTINPNNGETRYNQKFKGKATLTVDKSSSTAYMELRSLTSEDSAVYYCTRGITKSPYGMDYWGQGTSITVSS
B6: SC27.104 (antibody, V domains shown)
VH: EVQLQQSGPELVKPGASVKISCKTSGYTFTEYTVHWVKQSHGKSLEWIGGVYPKNGDTTYNQKFRGKATLTVDKSSNTAYMELRSLTSEDSAVYYCTGKDGYDGFAYWGQGTLVTVSA
VL: DIQMTQSSSSFSVSLGDRVTITCKASEDIYNRLAWYQQKPGNAPRLLISGATSLETGVPSRFSGSGSGKDYTLSITSLQTEDVATYYCQQYWSNPPTFGGGTKLEIK

Legend:
Assay in all cases: cell-based or functional assay
human CLDN9 = target: T1, human CLDN9
human CLDN4 = target: T2, human CLDN4
human CLDN6 = target: T3, human CLDN6

Row | Binder | apparent IC50, killing of HEK293T cells overexpressing hCLDN9 with anti-mouse Fab-saporin, CellTiter-Glo (human CLDN9) [nM] | apparent IC50, killing of HEK293T cells overexpressing hCLDN4 with anti-mouse Fab-saporin, CellTiter-Glo (human CLDN4) [nM] | apparent IC50, killing of HEK293T cells overexpressing hCLDN6 with anti-mouse Fab-saporin, CellTiter-Glo (human CLDN6) [nM]
1 | B1 | > 2000 | > 2000 | 235
2 | B2 | 16.9 | > 2000 | 25.2
3 | B3 | > 2000 | > 2000 | 102
4 | B4 | 466 | > 2000 | 57.7
5 | B5 | 155 | 69.7 | 48.2
6 | B6 | > 2000 | 969 | 284
